The target of data set [1] is T1, Wheat Lr67 (susceptible) protein, Lr67(sus), SUT sugar transporter, SEQ ID NO:4 (Triticum aestivum, UniProt W5ELX6).
T1 construct: D-genome copy) in pRS416 with ADH1 promoter, expressed in S. cerevisiae EBY.VW4000 (hexose transport deficient)
T1 sequence (W5ELX6 1-514): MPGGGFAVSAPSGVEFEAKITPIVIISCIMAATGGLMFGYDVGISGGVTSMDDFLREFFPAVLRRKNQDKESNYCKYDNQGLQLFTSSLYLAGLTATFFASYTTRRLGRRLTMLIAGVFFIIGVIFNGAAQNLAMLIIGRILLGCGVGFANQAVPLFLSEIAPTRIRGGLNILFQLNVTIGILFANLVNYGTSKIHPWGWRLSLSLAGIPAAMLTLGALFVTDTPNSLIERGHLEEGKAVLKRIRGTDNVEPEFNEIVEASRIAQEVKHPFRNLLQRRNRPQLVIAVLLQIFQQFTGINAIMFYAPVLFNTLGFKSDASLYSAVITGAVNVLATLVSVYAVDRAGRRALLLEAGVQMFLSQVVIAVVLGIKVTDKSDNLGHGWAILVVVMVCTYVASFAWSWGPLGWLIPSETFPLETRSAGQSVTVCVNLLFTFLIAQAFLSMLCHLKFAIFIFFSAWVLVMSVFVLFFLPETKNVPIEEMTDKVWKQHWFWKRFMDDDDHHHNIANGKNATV
Kind of data set: Concentration-dependent uptake of [14C] glucose in yeast expressing Lr67(sus). Particulars: [14C] glucose uptake; Lr67(sus) expressed in hexose transport deficient Saccharomyces cerevisiae EBY.VW4000; Lineweaver-Burk linear regression. The class given is cell-based. The protocol: The following experiments were completed using the protein coding regions for the Lr67 polypeptides (resistant and susceptible alleles) cloned into the yeast expression vector pRS416. This vector contained the constitutive ADH1 promoter and CYC1 terminator for expression of the inserted coding regions. The yeast strain employed was a hexose transport deficient variant of Saccharomyces cerevisiae named EBY.VW4000. Uptake was determined using radio labelled [^14C] glucose with incorporation radio-assayed by liquid scintillation counting.
(§1) The Lineweaver-Burk equation was used to convert data for linear regression analysis.

Substrate in data set [2]: OC[C@H]1OC(O)[C@H](O)[C@@H](O)[C@@H]1O
Kind of data set: cells, lysate or membranes. As to conditions: other: [14C] glucose uptake; Lr67(sus) expressed in hexose transport deficient Saccharomyces cerevisiae EBY.VW4000; Lineweaver-Burk linear regression.

Data set [3] deals with hexose transport deficient variant of Saccharomyces cerevisiae named EBY.VW4000. Kind of data set: Glucose uptake by yeast cells expressing Lr67 polypeptides, radio labelled [14C] glucose. As to conditions: 100 μM [14C] glucose for 10 minutes, tested at 2 minute intervals, vs empty vector, FIG. 11. Format: cell-based.
Description: The following experiments were completed using the protein coding regions for the Lr67 polypeptides (resistant and susceptible alleles) cloned into the yeast expression vector pRS416. This vector contained the constitutive ADH1 promoter and CYC1 terminator for expression of the inserted coding regions. The yeast strain employed was a hexose transport deficient variant of Saccharomyces cerevisiae named EBY.VW4000.
as §1

Changes are numbered by the printed parent chain.

Experimental findings from US12037595B2, “Rust resistance gene” (Commonwealth Scientific and Industrial Research Organisation, priority 2013, dated 2024) are described below.

Regarding `OC[C@H]1OC(O)[C@H](O)[C@@H](O)[C@@H]1O` (stereo partly shown) [glucose], in data set [1], the Vmax was 3.02 nmol min^−1 g FW^−1.

B1: Wheat Lr67 (susceptible) protein, Lr67(sus), SUT sugar transporter, SEQ ID NO:4 (Triticum aestivum) (protein)
chain: T1 sequence (W5ELX6 1-514)
With B1, the Michaelis-Menten constant (Km) in data set [2] was determined as 73 µM. For the same molecule, in data set [3], the “Glucose uptake over time” value is on record as “capable of transporting glucose at a higher rate than yeast cells expressing the Lr67 resistant allele or empty vector”.

B2: Lr67(res): Wheat Lr67 (resistant) protein, 514 amino acids, arginine at position 144 and leucine at position 387 (protein, listed as Triticum aestivum)
chain: T1 sequence (W5ELX6 1-514) with G144R, V387L
For the molecule B2, in data set [3], the “Glucose uptake over time” value is given as “did not show detectable glucose transport activity above the control”.
